According to US20140256640A1 (PAION DEUTSCHLAND, published 2014):

Molecular target: human thrombin (human, UniProt P00734 328-622)
Assay: equilibrium titration of thrombin (20 nM) with thrombomodulin in solution, read by the change in fluorescence of the thrombin inhibitor DAPA, fitted by nonlinear regression
Experimental: A solution containing thrombin (20 nM), thrombomodulin (1.54 μM), and DAPA (20 nM, dansylarginine N-3-(ethyl-1,5-pentanediyl)amide, a fluorescent, reversible thrombin inhibitor) in 0.02 M Tris-HCl, 0.15 M NaCl, 5.0 mM CaCl₂, 0.01% Tween 80, pH 7.4, was added in small successive aliquots to an otherwise identical solution that lacked thrombomodulin. The additions were performed in a cuvette fitted with a magnetic stirrer in the sample compartment of a Perkin-Elmer model LS50B spectrofluorimeter. Intensity values were continuously recorded with excitation and emission wavelengths of 280 and 545 nm, respectively. A 430-nm cut-off filter was used in the emission beam. The intensity of fluorescence, I, was assumed to be the sum of intensities from thrombin-DAPA (T·D) and thrombin-thrombomodulin-DAPA (T·TM·D). That is, I=i₁·[T·D]+i₂·[T·TM·D], where i₁ and i₂ are the coefficients of fluorescence for T·D and T·TM·D (since excitation was at 280 nm, the emission from free DAPA was negligible).
Therefore, with KTM defined as the dissociation constant for the thrombin-thrombomodulin interaction, [T][TM]=KTM[T·TM]; [T·D][TM]=KTM[T·TM·D]; and ([T]+[T·D])·[TM]=KTM([T·TM]+[T·TM·D]). The last expression is identical to f·[TM]=KTM·b. Since f=1−b and [TM]=[TM]₀−b[T]₀, where [TM]₀ is the total thrombomodulin concentration, the following equation is obtained: (1−b)([TM]₀−b·[T]₀)=KTM·b. […]

B1: Solulin (recombinant human soluble thrombomodulin) (receptor)
chain: EPQPGGSQCVEHDCFALYPGPATFLNASQICDGLRGHLMTVRSSVAADVISLLLNGDGGVGRRRLWIGLQLPPGCGDPKRLGPLRGFQWVTGDNNTSYSRWARLDLNGAPLCGPLCVAVSAAEATVPSEPIWEEQQCEVKADGFLCEFHFPATCRPLAVEPGAAAAAVSITYGTPFAARGADFQALPVGSSAAVAPLGLQLMCTAPPGAVQGHWAREAPGAWDCSVENGGCEHACNAIPGAPRCQCPAGAALQADGRSCTASATQSCNDLCEHFCVPNPDQPGSYSCMCETGYRLAADQHRCEDVDDCILEPSPCPQRCVNTQGGFECHCYPNYDLVDGECVEPVDPCFRANCEYQCQPLNQTSYLCVCAEGFAPIPHEPHRCQLFCNQTACPADCDPNTQASCECPEGYILDDGFICTDIDECENGGFCSGVCHNLPGTFECICGPDSALAGQIGTDCDSGKVDGGDSGAGEPPPSPTPGSTLTPP
notes: Obtained from PAION Deutschland GmbH; also called sTM; recombinant soluble thrombomodulin
  Kd: 23 nM
